Values quoted from earlier work in PMC10561060.

Biological target: chemoreceptor C-terminal pentapeptide (Escherichia coli)
Assay: ITC

Substance	Kd
CheB (from UniProt P07330)	160 µM
CheR (from UniProt P07364)	2 µM
